Experimental data reported in PMC4809600, “The Influence of Chronic Wound Extracts on Inflammatory Cytokine and Histatin Stability” (PLoS ONE, 2016).

Legend:
[1] = Stability in PBS, capillary zone electrophoresis; type: physicochemical; conditions: 1 mg/ml in PBS mixed 1:1 with PBS, 37°C, 96 h, CZE, UV 200 nm, ratio to imidazole internal standard, 0 h = 100%
Procedure: To determine the stability of the different peptides in CWE, histatins and cytokines were dissolved in PBS at 1 mg/ml. Histatins and cytokines were incubated in a 1:1 ratio with (i) PBS, (ii) CWE in PBS, or (iii) CWE in PBS containing PIC, in a total volume of 25 μl. Imidazole (Sigma-Aldrich) was added as an internal standard, with a final concentration of 100 μg/ml. The mixtures were incubated at 37°C, and samples were taken at 0, 24, 48, 72 and 96 h. For histatins containing mixtures, additional samples were taken after 2, 4, 8 and 16 h of incubation.
The samples were analyzed with a BioFocus 2000 capillary zone electrophoresis system (Bio-Rad Laboratories, Hercules, CA, USA) equipped with an uncoated fused-silica capillary of internal diameter 50 μm and a length of 24 cm. Samples were loaded by pressure injection (5 psi/sec). Separation was performed at 10 kV (cathode at the detector side) at 20°C using 0.1 M phosphate buffer (pH 2.5) as electrolyte and monitored continuously at 200 nm. Peaks were quantified with the BioFocus Integrator software. In order to quantify the percentage of intact peptides remaining after incubation with CWE, the ratios of histatins, rhIL-6 or rhCXCL8 to internal standard was set at 100% at 0h, and the ratios at the other incubation time points were related to this.

[2] = Stability in chronic wound extracts (CWE), capillary zone electrophoresis; type: in vitro ADME, human; conditions: 37°C, CZE, 0 h = 100%; for Percentage intact, CWE 24h / Percentage intact, CWE 48h / Percentage intact, CWE 72h / Percentage intact, CWE 96h: 1 mg/ml in PBS mixed 1:1 with CWE (1 mg/ml protein, pool of 5 donors) in PBS, UV 200 nm, ratio to imidazole; for Starting material remaining intact after 96 h in CWE: 1 mg/ml in PBS mixed 1:1 with CWE (1 mg/ml protein, pools of 5 donors), mean of 3 independent experiments
Summary of the method: (§1)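 Peptides or cytokines (1 mg/ml stock) mixed 1:1 with PBS or pooled chronic-wound extract (1 mg/ml protein, three pools of five donors), ±protease inhibitor cocktail, at 37 °C for up to 96 h. Analyzed by capillary zone electrophoresis (pH 2.5 phosphate, 200 nm), with peak ratio to imidazole standard relative to 0 h as % intact.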

[3] = Stability in CWE with protease inhibitor cocktail (PIC), capillary zone electrophoresis; type: in vitro ADME, human; conditions: 1 mg/ml in PBS mixed 1:1 with CWE (1 mg/ml protein, pool of 5 donors) in PBS containing PIC (final 1:140 v/v), 37°C, CZE, ratio to imidazole, 0 h = 100%
Summary of the method: as §1

Substance	Percentage intact, PBS 96h ([1]; experiment 1 of 3) [%]	Percentage intact, PBS 96h ([1]; experiment 2 of 3) [%]	Percentage intact, PBS 96h ([1]; experiment 3 of 3) [%]	Percentage intact, CWE 24h ([2]; experiment 1 of 3) [%]	Percentage intact, CWE 24h ([2]; experiment 2 of 3) [%]	Percentage intact, CWE 24h ([2]; experiment 3 of 3) [%]	Percentage intact, CWE 48h ([2]; experiment 1 of 3) [%]	Percentage intact, CWE 48h ([2]; experiment 2 of 3) [%]	Percentage intact, CWE 48h ([2]; experiment 3 of 3) [%]	Percentage intact, CWE 72h ([2]; experiment 1 of 3) [%]	Percentage intact, CWE 72h ([2]; experiment 2 of 3) [%]	Percentage intact, CWE 72h ([2]; experiment 3 of 3) [%]	Percentage intact, CWE 96h ([2]; experiment 1 of 3) [%]	Percentage intact, CWE 96h ([2]; experiment 2 of 3) [%]	Percentage intact, CWE 96h ([2]; experiment 3 of 3) [%]	Starting material remaining intact after 96 h in CWE [2] [%]	Percentage intact, CWE + PIC 24h ([3]; experiment 1 of 3) [%]	Percentage intact, CWE + PIC 24h ([3]; experiment 2 of 3) [%]	Percentage intact, CWE + PIC 24h ([3]; experiment 3 of 3) [%]	Percentage intact, CWE + PIC 48h ([3]; experiment 1 of 3) [%]	further results
CXCL8 CS: rhCXCL8 from Cell Systems, Cat nr. CS-C1069, CXCL8 (1–77)	91.5892	91.4833	87.1812	88.8666	92.8064	96.6818	87.3559	86.1407	89.0325	83.3251	83.9414	84.6704	78.0414	80.0263	80.2041	79	104.747	99.4146	99.4369	98.6704	Percentage intact, CWE + PIC 48h ([3]; experiment 2 of 3): 94.4506%; Percentage intact, CWE + PIC 48h ([3]; experiment 3 of 3): 91.0713%; Percentage intact, CWE + PIC 72h ([3]; experiment 1 of 3): 96.1244%; Percentage intact, CWE + PIC 72h ([3]; experiment 2 of 3): 88.7106%; Percentage intact, CWE + PIC 72h ([3]; experiment 3 of 3): 87.6839%; Percentage intact, CWE + PIC 96h ([3]; experiment 1 of 3): 87.7388%; Percentage intact, CWE + PIC 96h ([3]; experiment 2 of 3): 86.0248%; Percentage intact, CWE + PIC 96h ([3]; experiment 3 of 3): 85.3459%
IL-6 BioV: rhIL-6 from Biovision Inc, Cat nr. 4143	98.6817	79.9235	96.6267	86.2456	92.3596	87.2422	74.2431	71.0486	85.9071	64.7766	67.0796	78.8792	48.2486	62.2324	63.6069	58	100.779	107.202	97.2326	100.572	Percentage intact, CWE + PIC 48h ([3]; experiment 2 of 3): 97.0586%; Percentage intact, CWE + PIC 48h ([3]; experiment 3 of 3): 95.2476%; Percentage intact, CWE + PIC 72h ([3]; experiment 1 of 3): 93.9962%; Percentage intact, CWE + PIC 72h ([3]; experiment 2 of 3): 96.7281%; Percentage intact, CWE + PIC 72h ([3]; experiment 3 of 3): 94.831%; Percentage intact, CWE + PIC 96h ([3]; experiment 1 of 3): 90.2939%; Percentage intact, CWE + PIC 96h ([3]; experiment 2 of 3): 94.0745%; Percentage intact, CWE + PIC 96h ([3]; experiment 3 of 3): 94.3747%
IL-6 CS: rhIL-6 from Cell Systems Biotechnology, Cat nr. CS-C1066	91.7071	94.938	88.4799	87.5606	96.7909	93.0609	82.5586	90.261	82.6368	76.7459	64.558	69.7531	67.9184	56.1934	44.5849	56	96.0006	88.559	95.4415	84.6802	Percentage intact, CWE + PIC 48h ([3]; experiment 2 of 3): 88.7813%; Percentage intact, CWE + PIC 48h ([3]; experiment 3 of 3): 87.103%; Percentage intact, CWE + PIC 72h ([3]; experiment 1 of 3): 88.9677%; Percentage intact, CWE + PIC 72h ([3]; experiment 2 of 3): 86.585%; Percentage intact, CWE + PIC 72h ([3]; experiment 3 of 3): 83.9413%; Percentage intact, CWE + PIC 96h ([3]; experiment 1 of 3): 78.2271%; Percentage intact, CWE + PIC 96h ([3]; experiment 2 of 3): 83.1651%; Percentage intact, CWE + PIC 96h ([3]; experiment 3 of 3): 79.7008%
